According to the Immune Epitope Database (IEDB):

Tests used:
[1] = molecular target: HLA-B*48:01; test: IEDB peptide-MHC binding, purified MHC/direct/fluorescence; filed as Kd, often an IC50 or EC50 that approximates it; ≥ and ≤ were set here for values at or beyond the usual limits of such assays; conditions: source organism: Escherichia coli O157:H7
[2] = molecular target: HLA-A*02:01; test: as above; conditions: source organism: Escherichia coli O157:H7
[3] = molecular target: HLA-A*03:01; test: as above; conditions: source organism: Escherichia coli O157:H7
[4] = molecular target: HLA-B*27:05; test: as above; conditions: source organism: Escherichia coli O157:H7
[5] = molecular target: HLA-A*11:01; test: as above; conditions: source organism: Escherichia coli O157:H7
[6] = molecular target: HLA-A*01:01; test: as above; conditions: source organism: Escherichia coli O157:H7
[7] = molecular target: HLA-B*18:01; test: as above; conditions: source organism: Escherichia coli O157:H7
[8] = molecular target: HLA-B*15:01; test: as above; conditions: source organism: Escherichia coli O157:H7
[9] = molecular target: HLA-A*68:02; test: as above; conditions: source organism: Escherichia coli O157:H7
[10] = molecular target: HLA-A*31:01; test: as above; conditions: source organism: Escherichia coli O157:H7
[11] = molecular target: HLA-B*58:01; test: as above; conditions: source organism: Escherichia coli O157:H7
[12] = molecular target: HLA-B*15:17; test: as above; conditions: source organism: Escherichia coli O157:H7
[13] = molecular target: HLA-A*69:01; test: as above; conditions: source organism: Escherichia coli O157:H7
[14] = molecular target: HLA-B*57:01; test: as above; conditions: source organism: Escherichia coli O157:H7
[15] = molecular target: HLA-B*07:02; test: as above; conditions: source organism: Escherichia coli O157:H7
[16] = molecular target: HLA-B*40:01; test: as above; conditions: source organism: Escherichia coli O157:H7
[17] = molecular target: HLA-B*83:01; test: IEDB peptide-MHC binding, purified MHC/competitive/fluorescence; filed as Kd, often an IC50 or EC50 that approximates it; ≥ and ≤ were set here for values at or beyond the usual limits of such assays; conditions: source organism: Escherichia coli O139:H28 str. E24377A
[18] = molecular target: HLA-B*45:06; test: as above; conditions: source organism: Escherichia coli O139:H28 str. E24377A
[19] = molecular target: HLA-A*32:07; test: as above; conditions: source organism: Escherichia coli O139:H28 str. E24377A
[20] = molecular target: HLA-B*15:42; test: as above; conditions: source organism: Escherichia coli O139:H28 str. E24377A
[21] = molecular target: HLA-B*40:13; test: as above; conditions: source organism: Escherichia coli O139:H28 str. E24377A
[22] = molecular target: HLA-B*39:01; test: as above; conditions: source organism: Escherichia coli O139:H28 str. E24377A

Kd [1]: 149 nM
Kd [2]: ≥ 20000 nM
Kd [3]: ≥ 20000 nM
Kd [4]: 590 nM
Kd [5]: ≥ 20000 nM
Kd [6]: ≥ 20000 nM
Kd [7]: ≤ 1 nM
Kd [8]: 45 nM
Kd [9]: ≥ 20000 nM
Kd [10]: ≥ 20000 nM
Kd [11]: ≥ 20000 nM
Kd [12]: ≥ 20000 nM
Kd [13]: ≥ 20000 nM
Kd [14]: ≥ 20000 nM
Kd [15]: ≥ 20000 nM
Kd [16]: ≤ 1 nM
Kd [17]: ≥ 5000 nM
Kd [18]: ≥ 5000 nM
Kd [19]: 13.5 nM
Kd [20]: ≥ 5000 nM
Kd [21]: 61.1 nM
Kd [22]: 135 nM
Sequence: REWGWRIPF
